According to patent US20250296996A1, “ANGIOPOIETIN-RELATED PROTEIN 7-SPECIFIC ANTIBODIES AND USES THEREOF” (Broadwing Bio, Inc., priority 2022, published 2025):
Entries after “also recorded” stand apart in the source; their conditions may differ.

Test system: 3D human trabecular meshwork (HTM) cells co-cultured with human Schlemms' canal (HSC) cells
Experiment: Outflow facility in bioengineered 3D HTM/HSC ex vivo human eye tissue model, ANGPTL7 or dexamethasone
Assay type: cell-based
Settings: 3D-HTM donors; 500 nM Dexamethasone or 50 ng/mL ANGPTL7 vs vehicle (DMSO)
Description: Experiments were conducted to determine the effects of ANGPTL7 on outflow facility in a bioengineered ex vivo human eye tissue model. Glauconix developed a proprietary technology allowing multi-layer growth of bioengineered 3D human trabecular meshwork (HTM) cells co-cultured with human Schlemms' canal (HSC) cells, thereby mimicking the architecture of the tissues responsible for pressure build-up in the human eye (FIG. 3A). This allows endpoint analyses relevant to IOP-modulation. This scaffolding of cells is used to compare treatment effects of vehicle (DMSO), dexamethasone (a steroid known to elevate IOP), and human ANGPTL7 protein on outflow facility.
Briefly, HTM cells were thawed and allowed to grow for about 7 days (media changes every 2 days). The HTM cells were seeded onto scaffolds and HSC cells were thawed on the same day; the HTM cells were allowed to grow for 7 days on the scaffolds with media changes every 2 days. HSCs were co-cultured on the back side of the HTM scaffolds and grown for 10-12 days with media changes every 2 days. […]
Samples were analyzed using One-way ANOVA (GraphPad Prism Software, Inc., La Jolla, CA), *P<0.05, **P<0.0.01, ***P<0.001 N=4 per treatment group. […] […]

B1: ANGPTL7: human ANGPTL7 protein (angiopoietin-related protein 7), made by Biortus, used as treatment at 50 ng/mL (protein)
chain: QKLSKHKTPAQPQLKAANCCEEVKELKAQVANLSSLLSELNKKQERDWVSVVMQVMELESNSKRMESRLTDAESKYSEMNNQIDIMQLQAAQTVTQTSADAIYDCSSLYQKNYRISGVYKLPPDDFLGSPELEVFCDMETSGGGWTIIQRRKSGLVSFYRDWKQYKQGFGSIRGDFWLGNEHIHRLSRQPTRLRVEMEDWEGNLRYAEYSHFVLGNELNSYRLFLGNYTGNVGNDALQYHNNTAFSTKDKDNDNCLDKCAQLRKGGYWYNCCTDSNLNGVYYRLGEHNKHLDGITWYGWHGSTYSLKRVEMKIRPEDFKP
Q: For B1, which outflow facility is on record?
A: reduced outflow facility; also recorded: significantly decreased outflow facility
